In PMC5408610, “Identification and characterization of a 20β-HSDH from the anaerobic gut bacterium Butyricicoccus desmolans ATCC 43058” (Journal of Lipid Research, 2017):

What was measured:
[1] = biological target: 20β-hydroxysteroid dehydrogenase (20β-HSDH) from Butyricicoccus desmolans ATCC 43058 (Butyricicoccus desmolans ATCC 43058); assay: SEC; Superdex 200 analytical column, 4°C; 50 mM Tris-Cl, 300 mM NaCl, 10% glycerol, 10 mM 2-mercaptoethanol, 0.1% Triton X-100, pH 7.5; native mass from retention volume against standard proteins, divided by the subunit mass from SDS-PAGE
purified protein = substrate: C[C@]12CCC(=O)C=C1CC[C@@H]1[C@@H]2[C@@H](O)C[C@@]2(C)[C@H]1CC[C@]2(O)C(=O)CO; assay: purified protein; type: biochemical, Agathobaculum desmolans; conditions: reductive direction, saturating NADH, 0.05 μM enzyme, standard assay 50 mM phosphate pH 7.5, temperature not stated for Km

Row | stoichiometry N [1] | Molecule | Km (purified protein) | Vmax (purified protein)
1 | 3.96 | 20β-hydroxysteroid dehydrogenase (20β-HSDH) from Butyricicoccus desmolans ATCC 43058 (enzyme) |  | 
2 |  | 20β-HSDH (r20β-HSDH, desE) of B. desmolans ATCC 43058 (Agathobaculum desmolans ATCC 43058) (protein, N-terminal Strep-tag from pET-51b(+), E. coli BL21-CodonPlus(DE3) RIPL) MAEEFYAVYPKDAWKDPSYRLMDKFSLKGKKGFVTGGGGGIGRNTAAAWAEAGADVALVDIPASKDRLEPLAKEMSERYGVKVVPLYCDVSDEEQVNALKDDLIRELGTVDFAHINAGVCLMGDDVDVPYSTWKKVIDIDLNGAFMTAQVAQQIMREHNHGGSIIMTSSLSGYNANFIGGGPSPVCAYGTAKAGISQLARYMGAGLAPYGIRVNTISPGYIWSGIHEGVMDKAGHDMCLEVVPIKRFGRTDELQGVMLFLASEASSYITGINIPVDGGYSIF | 0.80 ± 0.06 µM | 30.4 µmol/min
